US20190225705A1 (Bayer, published 2019)
Each block holds one binder with its values, some of them ahead of it.

Experiments:
[1] = biological target: T1, human coagulation factor XI (human, UniProt P03951 19-625); test: ELISA on coated human FXI
T1 construct: Bought protein; also called FXI; fXI
Experimental: (§1) A standard ELISA format was used for analyzing the binding affinity of antibodies of this invention to FXI. Human FXI was obtained from Haematologic Technologies Inc. (human FXI; Cat. No. HCXI-0150), baboon FXI was generated as described below. These antigens were coated to black 384 well Maxisorp microtitter plates (Nunc; Cat. No: 460518), diluted to a concentration of 1 μg/ml in 1× Coating Buffer (Candor Bioscience; Cat. No. 121125). Plates were incubated overnight at 4° C. After ovemight incubation, plates were washed 2× with 50 μl/well using Phosphate Buffered Saline (PBS, SigmaAldrich, Cat. No. D8662)+0.05% Tween 20 (SigmaAldrich, Cat. No. P9416). Following this, 50 μl/well of blocking buffer (Smart Block; Candor Bioscience; Cat. No. 113500) was added and the plates incubated for 1 hour at room temperature. Afterwards, plates were washed for 3× using 50 μl/well of a PBS+0.05% Tween 20 buffer. Antibodies of this invention were added at different concentrations in a final volume of 30 μl/well. Plates were incubated for 1 hour at room temperature. Following this incubation step, plates were washed for 3× using 50 μl/well of a PBS+0.05% Tween 20 buffer. For the detection of bound candidate antibodies, the anti-h-Fc-POD antibody (Sigma; Cat. No. A0170) was diluted by the factor of 1:10000 in 10% Blocking Buffer. […]

[2] = biological target: T1, human coagulation factor XI; test: competitive ELISA on coated FXI, competitor biotinylated 1A6
[3] = biological target: T1, human coagulation factor XI; test: ELISA on coated human FXI, anti-h-Fc-POD detection
Experimental: as §1

- binding result [1]: binds
B1: humanized and germlined anti-FXI antibody TPP-3290 (antibody, human IgG1, kappa, V domains shown)
VH: EVTLRESGPALVKPTQTLTLTCTFSGFSLSTSGMGVSWIRQPPGKALEWLAHIDWDDDKYYSTSLKSRLTISKDTSKNQVVLTMTNMDPVDTATYYCARIRSSVYAHYYGMDYWGQGTTVTVSS
VL: DIVMTQSPDSLAVSLGERATISCKASQSVLYSGDNYLNWYQQKPGQPPKLLIYAASTLESGIPDRFSGSGSGTDFTLTISSLQAEDVAVYYCQQYNGTPWTFGGGTKVEIKR
notes: IgG expressed in HEK293-6E cells; also called TTP3290

- binding result [2]: binds
B2: humanized and germlined anti-FXI antibody TPP-3583 (antibody, human IgG1, kappa, V domains shown)
VH: EVTLRESGPALVKPTQTLTLTCTFSGFSLSTSGMGVGWIRQPPGKALEWLAHIDWDDDKYYSPSLKSRLTISKDTSKNQVVLTMTNMDPVDTATYYCARIRSSVYAHYYGMDYWGQGTTVTVSS
VL: DIVMTQSPDSLAVSLGERATISCKASQSVLYSGDNYLNWYQQKPGQPPKLLIYAASTLESGIPDRFSGSGSGTDFTLTISSLQAEDVAVYYCQQYNGDPWTFGGGTKVEIKR
notes: also called TTP-3583

- binding result [3]: binds
B3: humanized and germlined anti-FXI antibody TPP-3238 (antibody, human IgG1, kappa, V domains shown)
VH: EVTLRESGPALVKPTQTLTLTCTFSGFSLSTSGMGVSWIRQPPGKALEWLAHIDWDDDKYYSTSLKSRLTISKDTSKNQVVLTMTNMDPVDTATYYCARIRSSVYYYYYGMDVWGQGTTVTVSS
VL: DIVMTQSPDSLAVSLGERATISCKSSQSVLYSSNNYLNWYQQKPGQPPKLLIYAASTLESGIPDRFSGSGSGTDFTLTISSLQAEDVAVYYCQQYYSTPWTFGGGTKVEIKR
notes: IgG expressed in HEK293-6E cells
